1 substance from publication PMC5027511 can be followed below.

The assay addresses E. coli RNAP core with βG1249D (α2, His6-tagged βG1249D, β’, ω) (E. coli) (UniProt P0A7Z4). Put plainly: cross-linking; photo-crosslinking from BpA at σ 581; σD581BpA incubated with or without AsiA 10 min at 37°C, then with core 10 min at 37°C; UV 30 min at room temperature; SDS-PAGE with Coomassie stain; crosslinked band digested with trypsin and read by MALDI-TOF; the species was seen only with AsiA present.

In turn, “AsiA/σD581BpA complex (from UniProt P00579 1-613; P32267 1-90)” came in with a fold less of the σD581BpA-β’ crosslinked product than with wt core of 4 fold.
